System: Bacillus subtilis
Experiment: cleaved RNA product abundance (RNA/gDNA barcode ratio) relative to median wild-type variant (ratio to wild type); higher = more accumulation of the downstream cleavage product
Settings: experiment (reporter, strain, medium): exp 8a: truncated aprE reporter, strain BJT201 with 2% xylose (RNase J1 expressed); cleavage site: glnRA (positions -5 to +31 mutated)
Procedure, shortened: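 Reporter mRNAs based on truncated aprE or tetM carried barcoded, mutagenized RNase Y cleavage-site windows built from oligos with a 9% error rate and were integrated into the B. subtilis chromosome. Cultures grew in LB at 37°C from OD600 0.0003 to 0.3. Cleaved RNA was gel-selected, reverse transcribed and barcode-sequenced together with genomic DNA barcodes, and UMIs were collapsed. Cleaved product abundance is the per-construct ratio of RNA to gDNA barcodes, scaled to the median of constructs carrying the unmutated site.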

## CGACATGTCCCGCTTCTTTCATTAATCCGTTAGCAACTGTTTTAATATATACATTTACCTTTTAAGAGGAGGAAT
  cleaved RNA product abundance: 0.589

## CGACATGTCCCGCTTCTTTCATTAATCCGTTAGCAACTGTTTTACAATATACATTTACCTTTTAAGAGGAGGAAT
  cleaved RNA product abundance: 0.534

## CGACATGTCCCGCTTCTTTCATTAATCCGTTAGCAACTGTTTTACGATATACATTTACCTTTTAAGAGGAGGAAT
  cleaved RNA product abundance: 0.559

## CGACATGTCCCGCTTCTTTCATTAATCCGTTAGCAACTGTTTTACTAAATACATTTACCTTTTAAGAGGAGGAAT
  cleaved RNA product abundance: 0.499

## CGACATGTCCCGCTTCTTTCATTAATCCGTTAGCAACTGTTTTACTATAAACATTTACCTTTTAAGAGGAGGAAT
  cleaved RNA product abundance: 0.553

## CGACATGTCCCGCTTCTTTCATTAATCCGTTAGCAACTGTTTTACTATATAAATTTACCTTTTAAGAGGAGGAAT
  cleaved RNA product abundance: 0.596

## CGACATGTCCCGCTTCTTTCATTAATCCGTTAGCAACTGTTTTACTATATACAATTACCTTTTAAGAGGAGGAAT
  cleaved RNA product abundance: 0.613

## CGACATGTCCCGCTTCTTTCATTAATCCGTTAGCAACTGTTTTACTATATACAATTACTTTTTAAGAGGAGGAAT
  cleaved RNA product abundance: 0.712

## CGACATGTCCCGCTTCTTTCATTAATCCGTTAGCAACTGTTTTACTATATACATATACCTTTTAAGAGGAGGAAT
  cleaved RNA product abundance: 1.11

## CGACATGTCCCGCTTCTTTCATTAATCCGTTAGCAACTGTTTTACTATATACATCTACCTTTTAAGAGGAGGAAT
  cleaved RNA product abundance: 0.506

## CGACATGTCCCGCTTCTTTCATTAATCCGTTAGCAACTGTTTTACTATATACATGTACCTTTTAAGAGGAGGAAT
  cleaved RNA product abundance: 0.471

## CGACATGTCCCGCTTCTTTCATTAATCCGTTAGCAACTGTTTTACTATATACATTCACCTTTTAAGAGGAGGAAT
  cleaved RNA product abundance: 0.4

## CGACATGTCCCGCTTCTTTCATTAATCCGTTAGCAACTGTTTTACTATATACATTTAACTTTTAAGAGGAGGAAT
  cleaved RNA product abundance: 0.539

## CGACATGTCCCGCTTCTTTCATTAATCCGTTAGCAACTGTTTTACTATATACATTTACATTTTAAGAGGAGGAAT
  cleaved RNA product abundance: 0.688

## CGACATGTCCCGCTTCTTTCATTAATCCGTTAGCAACTGTTTTACTATATACATTTACCCTTTAAGAGGAGGAAT
  cleaved RNA product abundance: 0.921

## CGACATGTCCCGCTTCTTTCATTAATCCGTTAGCAACTGTTTTACTATATACATTTACCTTTTAAGAGGAGGAAT
  cleaved RNA product abundance: 0.619

## CGACATGTCCCGCTTCTTTCATTAATCCGTTAGCAACTGTTTTACTATATACATTTACGTTTTAAGAGGAGGAAT
  cleaved RNA product abundance: 0.77

## CGACATGTCCCGCTTCTTTCATTAATCCGTTAGCAACTGTTTTACTATATACATTTACTTTTTAAGAGGAGGAAT
  cleaved RNA product abundance: 0.621

## CGACATGTCCCGCTTCTTTCATTAATCCGTTAGCAACTGTTTTACTATATACATTTATCTTTTAAGAGGAGGAAT
  cleaved RNA product abundance: 0.588

## CGACATGTCCCGCTTCTTTCATTAATCCGTTAGCAACTGTTTTACTATATACATTTTCCTTTTAAGAGGAGGAAT
  cleaved RNA product abundance: 0.458

## CGACATGTCCCGCTTCTTTCATTAATCCGTTAGCAACTGTTTTACTATATACGTTTACCTTTTAAGAGGAGGAAT
  cleaved RNA product abundance: 0.455

## CGACATGTCCCGCTTCTTTCATTAATCCGTTAGCAACTGTTTTACTATATATATTTACCTTTTAAGAGGAGGAAT
  cleaved RNA product abundance: 0.708

## CGACATGTCCCGCTTCTTTCATTAATCCGTTAGCAACTGTTTTACTATATTCATTTACCTTTTAAGAGGAGGAAT
  cleaved RNA product abundance: 0.189

## CGACATGTCCCGCTTCTTTCATTAATCCGTTAGCAACTGTTTTACTCTATACATTTACCTTTTAAGAGGAGGAAT
  cleaved RNA product abundance: 0.597

## CGACATGTCCCGCTTCTTTCATTAATCCGTTAGCAACTGTTTTATTATATACATTTACCTTTTAAGAGGAGGAAT
  cleaved RNA product abundance: 0.698

## CGACATGTCCCGCTTCTTTCATTAATCCGTTAGCAACTGTTTTCCTAAATACATTTACCTTTTAAGAGGAGGAAT
  cleaved RNA product abundance: 0.23

## CGACATGTCCCGCTTCTTTCATTAATCCGTTAGCAACTGTTTTCCTATAAACATTTACCTTTTAAGAGGAGGAAT
  cleaved RNA product abundance: 0.526

## CGACATGTCCCGCTTCTTTCATTAATCCGTTAGCAACTGTTTTCCTATAGACATTTACCTTTTAAGAGGAGGAAT
  cleaved RNA product abundance: 0.36

## CGACATGTCCCGCTTCTTTCATTAATCCGTTAGCAACTGTTTTCCTATATACATATACCTTTTAAGAGGAGGAAT
  cleaved RNA product abundance: 0.353

## CGACATGTCCCGCTTCTTTCATTAATCCGTTAGCAACTGTTTTCCTATATACATTAACCTTTTAAGAGGAGGAAT
  cleaved RNA product abundance: 0.43

## CGACATGTCCCGCTTCTTTCATTAATCCGTTAGCAACTGTTTTCCTATATACATTCACCTTTTAAGAGGAGGAAT
  cleaved RNA product abundance: 0.346

## CGACATGTCCCGCTTCTTTCATTAATCCGTTAGCAACTGTTTTCCTATATACATTTACATTTTAAGAGGAGGAAT
  cleaved RNA product abundance: 0.549

## CGACATGTCCCGCTTCTTTCATTAATCCGTTAGCAACTGTTTTCCTATATACATTTACCTTTTAAGAGGAGGAAT
  cleaved RNA product abundance: 0.539

## CGACATGTCCCGCTTCTTTCATTAATCCGTTAGCAACTGTTTTCCTATATACATTTACTTTTTAAGAGGAGGAAT
  cleaved RNA product abundance: 0.31

## CGACATGTCCCGCTTCTTTCATTAATCCGTTAGCAACTGTTTTCCTATATACATTTATCTTTTAAGAGGAGGAAT
  cleaved RNA product abundance: 0.55

## CGACATGTCCCGCTTCTTTCATTAATCCGTTAGCAACTGTTTTCCTATATACGTTTACCTTTTAAGAGGAGGAAT
  cleaved RNA product abundance: 0.26

## CGACATGTCCCGCTTCTTTCATTAATCCGTTAGCAACTGTTTTCCTATATATATTTACCTTTTAAGAGGAGGAAT
  cleaved RNA product abundance: 0.505

## CGACATGTCCCGCTTCTTTCATTAATCCGTTAGCAACTGTTTTGAAATATACATTTACCTTTTAAGAGGAGGAAT
  cleaved RNA product abundance: 0.462

## CGACATGTCCCGCTTCTTTCATTAATCCGTTAGCAACTGTTTTGATAAATACATTTACCTTTTAAGAGGAGGAAT
  cleaved RNA product abundance: 0.384

## CGACATGTCCCGCTTCTTTCATTAATCCGTTAGCAACTGTTTTGATATAAACATTTACCTTTTAAGAGGAGGAAT
  cleaved RNA product abundance: 0.399

## CGACATGTCCCGCTTCTTTCATTAATCCGTTAGCAACTGTTTTGATATATAAATTTACCTTTTAAGAGGAGGAAT
  cleaved RNA product abundance: 0.397

## CGACATGTCCCGCTTCTTTCATTAATCCGTTAGCAACTGTTTTGATATATACACTTACCTTTTAAGAGGAGGAAT
  cleaved RNA product abundance: 0.313

## CGACATGTCCCGCTTCTTTCATTAATCCGTTAGCAACTGTTTTGATATATACATATACCTTTTAAGAGGAGGAAT
  cleaved RNA product abundance: 0.572

## CGACATGTCCCGCTTCTTTCATTAATCCGTTAGCAACTGTTTTGATATATACATCTACCTTTTAAGAGGAGGAAT
  cleaved RNA product abundance: 0.44

## CGACATGTCCCGCTTCTTTCATTAATCCGTTAGCAACTGTTTTGATATATACATTAACCTTTTAAGAGGAGGAAT
  cleaved RNA product abundance: 0.832

## CGACATGTCCCGCTTCTTTCATTAATCCGTTAGCAACTGTTTTGATATATACATTTACATTTTAAGAGGAGGAAT
  cleaved RNA product abundance: 0.372

## CGACATGTCCCGCTTCTTTCATTAATCCGTTAGCAACTGTTTTGATATATACATTTACCTTTTAAGAGGAGGAAT
  cleaved RNA product abundance: 0.503

## CGACATGTCCCGCTTCTTTCATTAATCCGTTAGCAACTGTTTTGATATATACATTTATCTTTTAAGAGGAGGAAT
  cleaved RNA product abundance: 0.509

## CGACATGTCCCGCTTCTTTCATTAATCCGTTAGCAACTGTTTTGATATATACATTTGCCTTTTAAGAGGAGGAAT
  cleaved RNA product abundance: 0.378

## CGACATGTCCCGCTTCTTTCATTAATCCGTTAGCAACTGTTTTGATATATACATTTTCCTTTTAAGAGGAGGAAT
  cleaved RNA product abundance: 0.376

## CGACATGTCCCGCTTCTTTCATTAATCCGTTAGCAACTGTTTTGATATATATATTTACCTTTTAAGAGGAGGAAT
  cleaved RNA product abundance: 0.766

## CGACATGTCCCGCTTCTTTCATTAATCCGTTAGCAACTGTTTTGATATTTACATTTACCTTTTAAGAGGAGGAAT
  cleaved RNA product abundance: 0.18

## CGACATGTCCCGCTTCTTTCATTAATCCGTTAGCAACTGTTTTGCAATAAACATTTACCTTTTAAGAGGAGGAAT
  cleaved RNA product abundance: 0.232

## CGACATGTCCCGCTTCTTTCATTAATCCGTTAGCAACTGTTTTGCAATATACATTAACCTTTTAAGAGGAGGAAT
  cleaved RNA product abundance: 0.691

## CGACATGTCCCGCTTCTTTCATTAATCCGTTAGCAACTGTTTTGCAATATACATTTACCATTTAAGAGGAGGAAT
  cleaved RNA product abundance: 0.562

## CGACATGTCCCGCTTCTTTCATTAATCCGTTAGCAACTGTTTTGCAATATACATTTACCCTTTAAGAGGAGGAAT
  cleaved RNA product abundance: 0.405

## CGACATGTCCCGCTTCTTTCATTAATCCGTTAGCAACTGTTTTGCAATATACATTTACCTTTTAAGAGGAGGAAT
  cleaved RNA product abundance: 0.436

## CGACATGTCCCGCTTCTTTCATTAATCCGTTAGCAACTGTTTTGCAATATACATTTAGCTTTTAAGAGGAGGAAT
  cleaved RNA product abundance: 0.72

## CGACATGTCCCGCTTCTTTCATTAATCCGTTAGCAACTGTTTTGCAATATACATTTATCTTTTAAGAGGAGGAAT
  cleaved RNA product abundance: 0.505

## CGACATGTCCCGCTTCTTTCATTAATCCGTTAGCAACTGTTTTGCAATATACATTTCCCTTTTAAGAGGAGGAAT
  cleaved RNA product abundance: 0.589

## CGACATGTCCCGCTTCTTTCATTAATCCGTTAGCAACTGTTTTGCAATATACCTTTACCTTTTAAGAGGAGGAAT
  cleaved RNA product abundance: 0.29

## CGACATGTCCCGCTTCTTTCATTAATCCGTTAGCAACTGTTTTGCAATATAGATTTACCTTTTAAGAGGAGGAAT
  cleaved RNA product abundance: 0.599

## CGACATGTCCCGCTTCTTTCATTAATCCGTTAGCAACTGTTTTGCAATATATATTTACCTTTTAAGAGGAGGAAT
  cleaved RNA product abundance: 0.379

## CGACATGTCCCGCTTCTTTCATTAATCCGTTAGCAACTGTTTTGCAATATCCATTTACCTTTTAAGAGGAGGAAT
  cleaved RNA product abundance: 0.156

## CGACATGTCCCGCTTCTTTCATTAATCCGTTAGCAACTGTTTTGCCACGTACATTTACCTTTTAAGAGGAGGAAT
  cleaved RNA product abundance: 0.0527

## CGACATGTCCCGCTTCTTTCATTAATCCGTTAGCAACTGTTTTGCCAGATACATTTACCTTTTAAGAGGAGGAAT
  cleaved RNA product abundance: 0.286
